From US6344321, “Nucleic acid ligands which bind to hepatocyte growth factor/scatter factor (HGF/SF) or its receptor c-met” (Gilead Sciences, Inc.)

Molecular target: HGF (hepatocyte growth factor/scatter factor) (UniProt P14210;P14210 P14210:32-494,P14210:495-728)
Assay: filter; HBSMC, 37C
Conditions: tags: R&D Systems
Protocol: In binding reactions, RNA concentrations were kept as low as possible—between 1 and 20 pM—to ensure equilibrium in conditions of protein excess. Oligonucleotides were incubated for 15 minutes at 37° C. with varying amounts of the protein in 43 µl of the binding buffer. Thirty-two microliters of each binding mixture placed on pre-wet 0.45 µm nitrocellulose filters under suction. Each well was immediately washed with 0.5 ml binding buffer. The amount of radioactivity retained on the filters was quantitated by imaging. The radioactivity that bound to filters in the absence of protein was used for background correction. The percentage of input oligonucleotide retained on each filter spot was plotted against the corresponding log protein concentration. The nonlinear least square method was used to obtain the dissociation constant (K_d; reference Jellinek, Lynott et al. 1993, Proc. Natl. Acad. Sci. USA. 90:11227–31).

Sequence of HGF (hepatocyte growth factor/scatter factor) (P14210 32-494, chain 1 of 2): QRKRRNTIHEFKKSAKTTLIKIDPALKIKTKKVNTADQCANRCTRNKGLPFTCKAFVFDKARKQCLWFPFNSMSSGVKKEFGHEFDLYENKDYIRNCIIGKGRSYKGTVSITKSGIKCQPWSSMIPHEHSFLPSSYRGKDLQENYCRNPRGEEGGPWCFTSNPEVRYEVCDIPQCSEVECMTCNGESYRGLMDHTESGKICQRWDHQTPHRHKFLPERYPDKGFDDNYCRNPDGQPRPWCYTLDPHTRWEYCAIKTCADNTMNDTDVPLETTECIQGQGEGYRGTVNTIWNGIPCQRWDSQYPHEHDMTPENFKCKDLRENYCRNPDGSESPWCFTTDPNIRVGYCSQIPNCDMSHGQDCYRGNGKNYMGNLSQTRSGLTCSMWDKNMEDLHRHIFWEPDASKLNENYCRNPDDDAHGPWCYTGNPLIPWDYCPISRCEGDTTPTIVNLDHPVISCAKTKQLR
Sequence of HGF (hepatocyte growth factor/scatter factor) (P14210 495-728, chain 2 of 2): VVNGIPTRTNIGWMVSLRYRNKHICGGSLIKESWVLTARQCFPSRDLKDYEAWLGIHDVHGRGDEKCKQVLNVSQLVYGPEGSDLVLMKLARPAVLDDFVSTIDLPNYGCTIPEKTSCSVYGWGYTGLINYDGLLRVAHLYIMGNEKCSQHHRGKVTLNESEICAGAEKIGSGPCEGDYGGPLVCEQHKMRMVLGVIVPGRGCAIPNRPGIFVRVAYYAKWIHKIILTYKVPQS

Row | Binder | Kd
1 | 8-160 (ssRNA, 2'-F pyrimidines) RNA: GGGAGGACGAUGCGGGUCCCCGAAUUUAAAGUGCGUUUUCCUCCGGGCAGACGACUCGCCCGA | 0.15 nM
2 | 11-203 (ssRNA, 2'-F pyrimidines) RNA: GGGAGGACGAUGCGGGGUUUUUCUUUUCUUGUUCUCUUCUUUCCCCCAGACGACUCGCCCGA | 0.26 nM
3 | 11-224 (ssRNA, 2'-F pyrimidines) RNA: GGGAGGACGAUGCGGACAGCGGCGACUAGCCUGUUCAUGCCUGCCCAGACGACUCGCCCGA | 0.11 nM
4 | 11-107 (ssRNA, 2'-F pyrimidines) RNA: GGGAGGACGAUGCGGGUUCUGUGUGUCCACGUUCUUACCCCUGUGCAGACGACUCGCCCGA | 0.14 nM
5 | 10-28 (ssRNA, 2'-F pyrimidines) RNA: GGGAGAUAAGAAUAAACGCUCAACCUGUUCUGAACGCAAAAUGGCGUGGUGGCUUCGACAGGAGGCUCACAACAGGC | 0.86 nM
6 | 10-40 (ssRNA, 2'-F pyrimidines) RNA: GGGAGAUAAGAAUAAACGCUCAAUGUCGUUAGUUUAUUGACAAGGCCCGAAGUUCGACAGGAGGCUCACAACAGGC | 0.35 nM
7 | 8-203 (ssRNA, 2'-F pyrimidines) RNA: GGGAGGACGAUGCGGCGCGAGCCUAUUUAUGUCAUCAUGUCUGUGCAGACGACUCGCCCGA | 0.14 nM
8 | 10-52 (ssRNA, 2'-F pyrimidines) RNA: GGGAGAUAAGAAUAAACGCUCAAUCUUAUUGUGUCCAGCUUCUCCCUGCAGGCUUCGACAGGAGGCUCACAACAGGC | 0.16 nM
9 | 10-72 (ssRNA, 2'-F pyrimidines) RNA: GGGAGAUAAGAAUAAACGCUCAAUGUGGCACUGUUGUCCACAAGGGCCUCAUUCGACAGGAGGCUCACAACAGGC | 0.45 nM
10 | 10-8 (ssRNA, 2'-F pyrimidines) RNA: GGGAGAUAAGAAUAAACGCUCAAUUGACAAGGUACCUGUUGCCUGGCGUUUCUUUCGACAGGAGGCUCACAACAGGC | 0.92 nM
11 | 10-76 (ssRNA, 2'-F pyrimidines) RNA: GGGAGAUAAGAAUAAACGCUCAAAGUUAGGCUUUAAAGCACGAUAAUCAGCAUUCGACAGGAGGCUCACAACAGGC | 0.17 nM
12 | 10-47 (ssRNA, 2'-F pyrimidines) RNA: GGGAGAUAAGAAUAAACGCUCAAGUCAAGAGGAAAUGACACGGCUCCACUUUUAUUCGACAGGAGGCUCACAACAGGC | 0.39 nM
13 | 10-2 (ssRNA, 2'-F pyrimidines) RNA: GGGAGAUAAGAAUAAACGCUCAAGCCUGAGUUAAACAUGACGGUUUGUGACCCUUCGACAGGAGGCUCACAACAGGC | 0.069 nM
14 | 10-3 (ssRNA, 2'-F pyrimidines) RNA: GGGAGAUAAGAAUAAACGCUCAAGCCUGAGUUAAACAUGACGGGUUUUGUGACCCCUUUCGACAGGAGGCUCACAACAGGC | 0.072 nM
15 | 10-23 (ssRNA, 2'-F pyrimidines) RNA: GGGAGAUAAGAAUAAACGCUCAAGUCUGAGUUGGACACAACGCAUUGAGACCCUUCGACAGGAGGCUCACAACAGGC | 0.33 nM
16 | 10-37 (ssRNA, 2'-F pyrimidines) RNA: GGGAGAUAAGAAUAAACGCUCAAGUCUGAGUCCGUAGGGCGAUUUGUGUCCCUUCGACAGGAGGCUCACAACAGGC | 3.05 nM
17 | 10-7 (ssRNA, 2'-F pyrimidines) RNA: GGGAGAUAAGAAUAAACGCUCAAUGCCUUAAGAGCGGAACUCCCUGACCCACCUUCGACAGGAGGCUCACAACAGGC | 1.45 nM
18 | 8-215 (ssRNA, 2'-F pyrimidines) RNA: GGGAGGACGAUGCGGCGUGAGCCUAUUUAUGUCAUCAUGUCUGGUCAGACGACUCGCCCGA | 0.077 nM
